# Measured values published in the RNAGym collection of RNA variant scans (doi:10.1093/molbev/msab373).
# B1: Azoarcus group I ribozyme (parent)
# chain: GUGCCUUGCGCCGGGAAACCACGCAAGGGAUGGUGUCAAAUUCGGCGAAACCUAAGCGCCCGCCCGGGCGUAUGGCAACGCCGAGCCAAGCUUCGGCGCCUGCGCCGAUGAAGGUGUAGAGACUAGACGGCACCCACCUAAGGCAAACGCUAUGGUGAAGGCAUAGUCCAGGGAGUGGCGAAAGUCACACAAACCGG
# Variants of: B1
# Assay: reverse-splicing fitness (ratio to wild type); higher = more active; in vitro selection; Mg2+ level not given
# Procedure, shortened: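 An in vitro group I ribozyme library with randomized positions was T7-transcribed and gel-purified. In triplicate, 10 pmol RNA in EPPS pH 7.5 was reacted with 50 pmoles of a 30-nt RNA substrate for 1 h at 37 °C across several added MgCl2 levels (1–48 mM), then stopped with EDTA. Products were reverse transcribed from a substrate-complementary primer, PCR-amplified and sequenced (HiSeq 4000). Fitness is a variant's read proportion after selection over that before, normalised to wild type.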
row,Variant,reverse-splicing fitness
1,GUGCCUUGCGCCGGGAAACCACGCAAGGGAUGGUGUCAAAUUCGGCGAAACCUAAGCGCCCGCCCGGGCGUAUGGCAACGCCGAGCCAAGCUUCGGCGCCUGCGCCGAUGUAGGUGUAGGGACUAGACGGCACCCACCUAAGGCAAACGGUAUGGUGAAGGCAUAGUCAAGGGAGCGGCGAAAGUCACACAAACCGG [A111U A120G C150G C169A U176C],0.00933
2,GUGCCUUGCGCCGGGAAACCACGCAAGGGAUGGUGUCAAAUUCGGCGAAACCUAAGCGCCCGCCCGGGCGUAUGGCAACGCCGAGCCAAGCUUCGGCGCCUGCGCCGAUGUAGGUGUAGGGACUAGACGGCACCCACCUAAGGCAAACGGUAUGGUGAAGGCAUAGUCAAGGGAGAGGCGAAAGUCACACAAACCGG [A111U A120G C150G C169A U176A],0.00974
3,GUGCCUUGCGCCGGGAAACCACGCAAGGGAUGGUGUCAAAUUCGGCGAAACCUAAGCGCCCGCCCGGGCGUAUGGCAACGCCGAGCCAAGCUUCGGCGCCUGCGCCGAUGUAGGUGUAGGGACUAGACGGCACCCACCUAAGGCAAACGAUAUGGUGAAGGCAUAGUCCAGGGAGGGGCGAAAGUCACACAAACCGG [A111U A120G C150A U176G],0.00685
4,GUGCCUUGCGCCGGGAAACCACGCAAGGGAUGGUGUCAAAUUCGGCGAAACCUAAGCGCCCGCCCGGGCGUAUGGCAACGCCGAGCCAAGCUUCGGCGCCUGCGCCGAUGUAGGUGUAGGGACUAGACGGCACCCACCUAAGGCAAACGAUAUGGUGAAGGCAUAGUCCAGGGAGAGGCGAAAGUCACACAAACCGG [A111U A120G C150A U176A],0.0147
5,GUGCCUUGCGCCGGGAAACCACGCAAGGGAUGGUGUCAAAUUCGGCGAAACCUAAGCGCCCGCCCGGGCGUAUGGCAACGCCGAGCCAAGCUUCGGCGCCUGCGCCGAUGUAGGUGUAGGGACUAGACGGCACCCACCUAAGGCAAACGAUAUGGUGAAGGCAUAGUCCAGGGAGCGGCGAAAGUCACACAAACCGG [A111U A120G C150A U176C],0.0216
6,GUGCCUUGCGCCGGGAAACCACGCAAGGGAUGGUGUCAAAUUCGGCGAAACCUAAGCGCCCGCCCGGGCGUAUGGCAACGCCGAGCCAAGCUUCGGCGCCUGCGCCGAUGUAGGUGUAGGGACUAGACGGCACCCACCUAAGGCAAACGGUAUGGUGAAGGCAUAGUCCAGGGAGUGGCGAAAGUCACACAAACCGG [A111U A120G C150G],0.0154
7,GUGCCUUGCGCCGGGAAACCACGCAAGGGAUGGUGUCAAAUUCGGCGAAACCUAAGCGCCCGCCCGGGCGUAUGGCAACGCCGAGCCAAGCUUCGGCGCCUGCGCCGAUGUAGGUGUAGGGACUAGACGGCACCCACCUAAGGCAAACGAUAUGGUGAAGGCAUAGUCAAGGGAGUGGCGAAAGUCACACAAACCGG [A111U A120G C150A C169A],0.015
8,GUGCCUUGCGCCGGGAAACCACGCAAGGGAUGGUGUCAAAUUCGGCGAAACCUAAGCGCCCGCCCGGGCGUAUGGCAACGCCGAGCCAAGCUUCGGCGCCUGCGCCGAUGUAGGUGUAGGGACUAGACGGCACCCACCUAAGGCAAACGAUAUGGUGAAGGCAUAGUCGAGGGAGUGGCGAAAGUCACACAAACCGG [A111U A120G C150A C169G],0.0231
9,GUGCCUUGCGCCGGGAAACCACGCAAGGGAUGGUGUCAAAUUCGGCGAAACCUAAGCGCCCGCCCGGGCGUAUGGCAACGCCGAGCCAAGCUUCGGCGCCUGCGCCGAUGUAGGUGUAGGGACUAGACGGCACCCACCUAAGGCAAACGAUAUGGUGAAGGCAUAGUCUAGGGAGUGGCGAAAGUCACACAAACCGG [A111U A120G C150A C169U],0.0186
10,GUGCCUUGCGCCGGGAAACCACGCAAGGGAUGGUGUCAAAUUCGGCGAAACCUAAGCGCCCGCCCGGGCGUAUGGCAACGCCGAGCCAAGCUUCGGCGCCUGCGCCGAUGUAGGUGUAGGGACUAGACGGCACCCACCUAAGGCAAACGGUAUGGUGAAGGCAUAGUCAAGGGAGUGGCGAAAGUCACACAAACCGG [A111U A120G C150G C169A],0.0142
11,GUGCCUUGCGCCGGGAAACCACGCAAGGGAUGGUGUCAAAUUCGGCGAAACCUAAGCGCCCGCCCGGGCGUAUGGCAACGCCGAGCCAAGCUUCGGCGCCUGCGCCGAUGUAGGUGUAGGGACUAGACGGCACCCACCUAAGGCAAACGGUAUGGUGAAGGCAUAGUCGAGGGAGUGGCGAAAGUCACACAAACCGG [A111U A120G C150G C169G],0.018
12,GUGCCUUGCGCCGGGAAACCACGCAAGGGAUGGUGUCAAAUUCGGCGAAACCUAAGCGCCCGCCCGGGCGUAUGGCAACGCCGAGCCAAGCUUCGGCGCCUGCGCCGAUGUAGGUGUAGGGACUAGACGGCACCCACCUAAGGCAAACGGUAUGGUGAAGGCAUAGUCUAGGGAGUGGCGAAAGUCACACAAACCGG [A111U A120G C150G C169U],0.019
13,GUGCCUUGCGCCGGGAAACCACGCAAGGGAUGGUGUCAAAUUCGGCGAAACCUAAGCGCCCGCCCGGGCGUAUGGCAACGCCGAGCCAAGCUUCGGCGCCUGCGCCGAUGUAGGUGUAGGGACUAGACGGCACCCACCUAAGGCAAACGAUAUGGUGAAGGCAUAGUCUAGGGAGGGGCGAAAGUCACACAAACCGG [A111U A120G C150A C169U U176G],0.0082
14,GUGCCUUGCGCCGGGAAACCACGCAAGGGAUGGUGUCAAAUUCGGCGAAACCUAAGCGCCCGCCCGGGCGUAUGGCAACGCCGAGCCAAGCUUCGGCGCCUGCGCCGAUGUAGGUGUAGGGACUAGACGGCACCCACCUAAGGCAAACGAUAUGGUGAAGGCAUAGUCUAGGGAGCGGCGAAAGUCACACAAACCGG [A111U A120G C150A C169U U176C],0.0205
15,GUGCCUUGCGCCGGGAAACCACGCAAGGGAUGGUGUCAAAUUCGGCGAAACCUAAGCGCCCGCCCGGGCGUAUGGCAACGCCGAGCCAAGCUUCGGCGCCUGCGCCGAUGUAGGUGUAGGGACUAGACGGCACCCACCUAAGGCAAACGAUAUGGUGAAGGCAUAGUCUAGGGAGAGGCGAAAGUCACACAAACCGG [A111U A120G C150A C169U U176A],0.0295
